{"source": "patent US20240199740A1", "key": {"[1]": {"target": "recombinant human CD123 protein (R&D Systems, 301-R3/CF) (human) (UniProt P26951)", "sequence (P26951 19-305)": "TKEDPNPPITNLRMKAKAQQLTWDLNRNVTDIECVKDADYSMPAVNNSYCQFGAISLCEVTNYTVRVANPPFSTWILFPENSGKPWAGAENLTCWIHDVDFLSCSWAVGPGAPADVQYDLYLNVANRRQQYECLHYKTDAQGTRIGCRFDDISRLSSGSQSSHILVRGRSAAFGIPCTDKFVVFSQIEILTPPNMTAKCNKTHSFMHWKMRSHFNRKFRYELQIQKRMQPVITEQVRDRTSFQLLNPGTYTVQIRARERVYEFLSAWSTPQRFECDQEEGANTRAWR", "test": "competition ELISA, coated antibody 7G3, 4 nM biotinylated recombinant CD123, antibody 7G3 in solution titrated"}, "[2]": {"target": "recombinant human CD123 protein (R&D Systems, 301-R3/CF) (human) (UniProt P26951)", "test": "ELISA, antibody 7G3 coated at 1 µg/ml, in house biotinylated recombinant CD123 titrated (concentration axis taken as CD123 per paragraph 750)"}, "[3]": {"target": "cynomolgus TCR/CD3 expressed on cells (cynomolgus)", "test": "cell-based or functional assay"}}, "data": [{"binder": "mouse monoclonal anti-CD123 antibody (clone 7G3) (antibody, from another filing, V domains shown) VH: EVQLQQSGPELVKPGASVKMSCKASGYTFTDYYMKWVKQSHGKSLEWIGDIIPSNGATFYNQKFKGKATLTVDRSSSTAYMHLNSLTSEDSAVYYCTRSHLLRASWFAYWGQGTLVTVSA VL: DFVMTQSPSSLTVTAGEKVTMSCKSSQSLLNSGNQKNYLTWYLQKPGQPPKLLIYWASTRESGVPDRFTGSGSGTDFTLTISSVQAEDLAVYYCQNDYSYPYTFGGGTKLEIK", "values": [{"measurement": "IC50 (read off the curve)", "setting": "[1]", "result": 2, "unit": "nM"}, {"measurement": "EC50 (read off the curve)", "setting": "[2]", "result": 10, "unit": "nM"}]}, {"binder": "T017000135 (bispecific antibody) DVQLVESGGGLVQAGGPLRLSCAASGRTFSSYVMGWFRQAPGKEREFVAAIYWSNGKTQYTDSVKGRFTISGDNAKNTVYLQMNSLNPEDTAVYYCVADKDETGFRTLPIAYDYWGQGTLVTVSSGGGGSGGGGSGGGGSGGGGSGGGGSGGGGSGGGGSEVQLVESGGGLVQPGGSLRLSCVASGDVHKINFLGWYRQAPGKEREKVAHISIGDQTDYADSAKGRFTISRDESKNMVYLQMNSLKPEDTAVYFCRAFSRIYPYDYWGQGTLVTVSSGGGGSGGGGSGGGGSGGGGSGGGGSGGGGSGGGGSEVQLVESGGGLVQAGGSLRLSCAASGITSKINDMGWYRQTPGNYREWVASITATGTTNYRDSVKGRFTISRDNAKSTVYLQMNSLKPEDTTVYYCNTFPPISNFWGQGTLVTVSSA", "values": [{"measurement": "% lysis, redirected cyno T cell mediated killing of KG1a cells, flow cytometry", "setting": "[3]", "result": 22, "unit": "%"}, {"measurement": "EC50 (M), redirected cyno T cell mediated killing of KG1a cells, flow cytometry", "setting": "[3]", "result": "2.4e-11", "unit": "M"}]}]}
